Patent US20240024519A1, “RADIOPHARMACEUTICAL COMPOSITIONS OF COPPER FOR TARGETED MOLECULAR IMAGING” (Curium US LLC, priority 2022, published 2024)

Test: Radiochemical purity (RCP) of dose vials over time after formulation, radio-HPLC
Format: physicochemical
Conditions: 10 Ci batches, with and without SPE purification (both formulations); post-formulation, i.e. after end of synthesis
Description: Two 10 Ci batches of copper Cu-64 PSMA I&T were prepared, wherein the primary difference between them was removal of the purification step. During purification, a solid phase extraction cartridge was used to purify the product by removing radiolabeling buffer and remaining ^64Cu copper chloride starting material; however, this step requires concentration of the batch activity in a small volume (i.e., <1 mL), which can encourage radiolytic damage and result in detrimental impacts to radiochemical purity (RCP). This phenomenon was observed experimentally when comparing the radiochemical purity of copper Cu-64 PSMA I&T prepared with and without purification (FIG. 2). The removal of the purification step yielded a product with a higher RCP of 98.9% (FIG. 2B) versus 92.4% (FIG. 2A). The difference between the two purity profiles was that the primary radiolytic impurity (tR=16.8′-17.2′) was largely absent in the non-purified product. In both formulations, the RCP of individual dose vials prepared thereof was maintained over a period of 51 h post-formulation (i.e., 51 h after end of synthesis).

With “^64Cu-(3S, 7S, 26R, 29R, 32R, 37R)-29-benzyl-32(4-hydroxy-3-iodobenzyl)-5, 13, 20, 28, 31, 34-hexaoxo-37-(4,7,10-tris(carboxymethyl)-1, 4, 7, 10-tetraazacyclododecan-1-yl)-4, 6, 12, 21, 27, 30, 33-heptaazaheptatriacontane-1, 3, 7, 26, 37-pentacarboxylic acid [Cu-64 PSMA I&T]” the “period over which RCP of individual dose vials was maintained” value was 51 h.
